Target: Exo10Rrp6 (crystal; Exo9 core + Rrp6 128-685 D238N) (Saccharomyces cerevisiae, UniProt Q12149;P38792;Q08285;P53859;P46948;Q05636;Q12277;P48240;P53256;P25359 …, D238N;Rrp6:)
Assay: X-ray crystallography

B1: polyA24 (ssRNA)
RNA: AAAAAAAAAAAAAAAAAAAAAAAA
  binding result: binds

From paper PMC4310248
